The target in assay [1] is T1, full-length YU2 gp120 (HIV-1 strain YU2, UniProt P35961 32-498).
T1 construct: domain: full-length gp120; also called wild-type gp120
The assay is described as follows: SPR (Biacore), 1:1 Langmuir fit. (In SPR one partner is held on a chip, and binding of the other changes the refractive index at the surface.)

For assay [2], the target named is T1, full-length YU2 gp120. Description: SPR (Biacore).

B1: VRC03 (antibody, V domains shown)
VH: QVQLVQSGAVIKTPGSSVKISCRASGYNFRDYSIHWVRLIPDKGFEWIGWIKPLWGAVSYARQLQGRVSMTRQLSQDPDDPDWGVAYMEFSGLTPADTAEYFCVRRGSCDYCGDFPWQYWGQGTVVVVSS
VL: EIVLTQSPGILSLSPGETATLFCKASQGGNAMTWYQKRRGQVPRLLIYDTSRRASGVPDRFVGSGSGTDFFLTINKLDREDFAVYYCQQFEFFGLGSELEVH
notes: also called mAb VRC03
For B1, in assay [1], the equilibrium dissociation constant (Kd) (in general, the free concentration of one partner at which half of the binding sites on the other are occupied at equilibrium, for simple one-to-one binding) was 73.1 nM. Also, the “fold lower affinity than VRC01 and VRC02” value in assay [2] is approximately 10 fold.

(Values after patent US20160009789A1 (US Dept. of Health and Human Services, published 2016).)
